Measured values as given in article PMC2191818.

Target: HLA-B*0702 class I heavy chain (free heavy chain, C1R transfectant B7C1R) (human)
Experiment: nonreducing SDS-PAGE of immunoprecipitates

“HLA-B*0702 class I heavy chain (free heavy chain, C1R transfectant B7C1R) (natural protein)” was tested. Which stoichiometry N did it give?
The stoichiometry N was 2.
